From US20140274782A1, “AFFINITY REAGENTS AND METHODS FOR DETECTION, PURIFICATION, AND PROTEOMIC ANALYSIS OF METHYLATED PROTEINS” (The Board of Trustees of the Leland Stanford Junior …, priority 2013, published 2014)

Assays:
3×MBT domain of L3MBTL1 [1] = test: SILAC proteomic pull-down 3×MBT vs 3×MBTD355N from 293T nuclear extract, LC-MS/MS; format: binding, human; conditions: SILAC ratio, 293T nuclear extract pull-down; * = protein identified in only one labeling experiment
Procedure: Protein pull-downs were performed as described above using 600 μg of nuclear extract prepared with isotopic labels as indicated. After eluting with glutathione, 3×MBT domain was removed by dialysis into high salt and rebinding to GSH-sepharose. Bound proteins were separated by SDS-PAGE and analyzed by in-gel tryptic digest followed by LC-MS/MS. Peptides were identified using MaxQuant version 1.2.2.5 (Cox and Mann (2008) Nat. Biotechnol. 26, 1367-1372) and candidate methylated peptides were verified by manual inspection.
For stable isotope labeling by amino acids in cell culture (SILAC) experiments HEK 293T cells were grown for at least six doublings in DMEM for SILAC supplemented with 10% dialyzed fetal bovine serum (FBS), 230 mg/L L-proline and either 100 mg/L each of L-lysine and L-arginine (“light” medium), D4-L-lysine and ^13C6-L-arginine (“medium” media), or ^13C6^15N2-L-lysine and ^13C6^15N4-L-arginine (Thermo Scientific). Heavy methyl labeling used DMEM without L-Methionine or L-Cysteine supplemented with D3^13C-L-Methionine (Sigma), L-Cysteine (Sigma) and 10% dialyzed FBS.
600 μg of nuclear extract was incubated overnight rotating at 4° C. with 20 μl packed 3×MBT or 3×MBTD355N beads in a total volume of 250 μL with binding buffer. Supernatant was removed and saved for use as a loading control. Beads were washed 4×5 minutes with 0.5 mL binding buffer. Protein was eluted by incubating in 20 μL elution buffer (10 mg/mL glutathione in 50 mM Tris pH 8.0) rotating at 4° C. for four hours. Elutions from 3×MBT and 3×MBTD355N were combined and dialyzed overnight at 4° C. against 10,000× volume of dissociation buffer (50 mM Tris pH 7.5, 750 mM NaCl) in a 0.1 mL Slide-A-Lyzer MINI Dialysis Device with 3.5K molecular weight cutoff (Thermo Scientific). 80 μL of GSH-Sepharose was prepared by washing briefly three times with 0.5 mL binding buffer. Dialyzed proteins were added to the GSH-Sepharose and incubated 4 hours rotating at 4° C. to deplete the GST-fusion domains. Supernatant was transferred to a fresh 1.5 mL tube. Proteins were separated by SDS-PAGE on a 10% polyacrylamide gel and stained using SilverQuest Silver Staining Kit (Life Technologies). Lanes were excised, residual 3×MBT band was removed, and gel was diced into 0.5 mm cubes. Gel pieces were destained and processed by in-gel digestion (Carlson et al. (2011) Science Signaling 4) with sequencing grade trypsin (Promega) and the peptide sample was dried completely in a vacuum centrifuge. To prepare a loading control, 2 μL each of light and heavy nuclear extract were combined, 6 μL of 8M urea was added, proteins were denatured by adding 2 μL of 100 mM dithiothreitol in digest buffer (50 mM ammonium bicarbonate) and heating to 60° C. for 1 hour, cysteine was alkylated by adding 2.2 μL 100 mg/mL iodoacetamide in digest buffer and incubating 1 hour at room temperature in darkness, and proteins were digested by adding 80 μL trypsin (Promega) at 12.5 ng/μL in digest buffer and incubating overnight at room temperature in darkness. Digestion was stopped by adding 10 μL of 10% formic acid.
Each experiment consisted of two sets of pull-downs: “forward” labeling with 3×MBT incubated with light nuclear extract and 3×MBTD355N with medium extract, and a second “reverse” labeling experiment with the label conditions swapped. Proteins were included in the results if they were quantified in both labeling directions. To determine reproducibility the entire experiment including the label swap was duplicated using independent protein preparations and a mass spectrometer at another institution.
For 3×MBT pull-down experiment #1 the gel lane was processed and peptides were loaded off-line onto a first dimension trap column (Waters Xbridge, C18, 10 μm particle size, 100 Å pore size, 5 cm packing length, 150 μm column i.d.). […]

3×MBT domain of L3MBTL1 [2] = test: Triple SILAC pull-down, 3xMBT/3xMBTD355N ratio (cytoplasmic, nuclear and chromatin fractions of 293T cells); format: binding, human; conditions: for 3xMBT/D355N UNC Heavy: experiment with UNC0638 in heavy SILAC media; for 3xMBT/D355N UNC Light: experiment with UNC0638 in light SILAC media;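 as to all read-outs here: proteins quantified with MaxQuant, requiring at least two unique peptides and quantification in both label directions, normalized to the mean of proteins from a digested loading control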
[3] = SILAC ratio, pull-down 3xMBT vs 3xMBTD355N
[4] = SILAC ratio 3xMBT vs 3xMBTD355N pull-down, 293T cells, all values in log base 2

Row | Molecule | Protein Ratio 3xMBT/D355N (3×MBT domain of L3MBTL1 [1]) | 3xMBT/D355N UNC Heavy (3×MBT domain of L3MBTL1 [2]; [3]) [log base 2] | 3xMBT/D355N UNC Light (3×MBT domain of L3MBTL1 [2]; [3]) [log base 2] | 3xMBT/D355N UNC Heavy (3×MBT domain of L3MBTL1 [2]; [4]) [log base 2] | 3xMBT/D355N UNC Light (3×MBT domain of L3MBTL1 [2]; [4]) [log base 2]
1 | MCM4: protein with methylated lysine identified in 3xMBT pull-down (protein, UniProt P33991 2-863, looked up, methylated lysine, protein with methylated lysine identified in 3xMBT pull-down) DNA replication licensing …: SSPASTPSRRGSRRGRATPAQTPRSEDARSSPSQRRRGEDSTSTGELQPMPTSPGVDLQSPAAQDVLFSSPPQMHSSAIPLDFDVSSPLTYGTPSSRVEGTPRSGVRGTPVRQRPDLGSAQKGLQVDLQSDGAAAEDIVASEQSLGQKLVIWGTDVNVAACKENFQRFLQRFIDPLAKEEENVGIDITEPLYMQRLGEINVIGEPFLNVNCEHIKSFDKNLYRQLISYPQEVIPTFDMAVNEIFFDRYPDSILEHQIQVRPFNALKTKNMRNLNPEDIDQLITISGMVIRTSQLIPEMQEAFFQCQVCAHTTRVEMDRGRIAEPSVCGRCHTTHSMALIHNRSLFSDKQMIKLQESPEDMPAGQTPHTVILFAHNDLVDKVQPGDRVNVTGIYRAVPIRVNPRVSNVKSVYKTHIDVIHYRKTDAKRLHGLDEEAEQKLFSEKRVELLKELSRKPDIYERLASALAPSIYEHEDIKKGILLQLFGGTRKDFSHTGRGKFRAEINILLCGDPGTSKSQLLQYVYNLVPRGQYTSGKGSSAVGLTAYVMKDPETRQLVLQTGALVLSDNGICCIDEFDKMNESTRSVLHEVMEQQTLSIAKAGIICQLNARTSVLAAANPIESQWNPKKTTIENIQLPHTLLSRFDLIFLLLDPQDEAYDRRLAHHLVALYYQSEEQAEEELLDMAVLKDYIAYAHSTIMPRLSEEASQALIEAYVDMRKIGSSRGMVSAYPRQLESLIRLAEAHAKVRLSNKVEAIDVEEAKRLHREALKQSATDPRTGIVDISILTTGMSATSRKRKEELAEALKKLILSKGKTPALKYQQLFEDIRGQSDIAITKDMFEEALRALADDDFLTVTGKTVRLL | 6.6 | 1.92 | 2.16 | – | –
2 | NHP2L1: protein with methylated lysine identified in 3xMBT pull-down (protein, UniProt P55769 1-128, looked up) NHP2-like protein 1: MTEADVNPKAYPLADAHLTKKLLDLVQQSCNYKQLRKGANEATKTLNRGISEFIVMAADAEPLEIILHLPLLCEDKNVPYVFVRSKQALGRACGVSRPVIACSVTIKEGSQLKQQIQSIQQSIERLLV | 4.4* | 1.56 | 3.46 | – | –
3 | SCML2: protein with methylated lysine identified in 3xMBT pull-down (protein, UniProt Q9UQR0 1-700, looked up) Sex comb on midleg-like …: MGQTVNEDSMDVKKENQEKTPQSSTSSVQRDDFHWEEYLKETGSISAPSECFRQSQIPPVNDFKVGMKLEARDPRNATSVCIATVIGITGARLRLRLDGSDNRNDFWRLVDSPDIQPVGTCEKEGDLLQPPLGYQMNTSSWPMFLLKTLNGSEMASATLFKKEPPKPPLNNFKVGMKLEAIDKKNPYLICPATIGDVKGDEVHITFDGWSGAFDYWCKYDSRDIFPAGWCRLTGDVLQPPGTSVPIVKNIAKTESSPSEASQHSMQSPQKTTLILPTQQVRRSSRIKPPGPTAVPKRSSSVKNITPRKKGPNSGKKEKPLPVICSTSAASLKSLTRDRGMLYKDVASGPCKIVMSTVCVYVNKHGNFGPHLDPKRIQQLPDHFGPGPVNVVLRRIVQACVDCALETKTVFGYLKPDNRGGEVITASFDGETHSIQLPPVNSASFALRFLENFCHSLQCDNLLSSQPFSSSRGHTHSSAEHDKNQSAKEDVTERQSTKRSPQQTVPYVVPLSPKLPKTKEYASEGEPLFAGGSAIPKEENLSEDSKSSSLNSGNYLNPACRNPMYIHTSVSQDFSRSVPGTTSSPLVGDISPKSSPHEVKFQMQRKSEAPSYIAVPDPSVLKQGFSKDPSTWSVDEVIQFMKHTDPQISGPLADLFRQHEIDGKALFLLKSDVMMKYMGLKLGPALKLCYYIEKLKEGKYS | 1.7 | – | – | 1.39 | 1.28
